Experimental findings from PMC6436931, “Activation of the Endonuclease that Defines mRNA 3′ Ends Requires Incorporation into an 8-Subunit Core Cleavage and Polyadenylation Factor Complex” (Molecular Cell, 2019) are described below.

Data set [1] concerns the target Cft1;Pfs2;Yth1;Fip1;Pap1;Cft2;Ysh1;Mpe1 (Saccharomyces cerevisiae;Saccharomyces …, UniProt Q06632;P42841;Q06102;P45976;P29468;Q12102;Q06224;P35728 …, |||||||). Description: EMSA; CPFcore; EMSA: 50 nM RNA, 0.25-4.0 uM protein, protein diluted in 10 mM HEPES pH 7.9, 150 mM NaCl, 0.5 mM Mg(OAc)2, plus 1x loading dye (orange G, glycerol, EDTA); 30 min on ice; native 6% acrylamide/TBE PAGE. Conditions: tags: ;3C-SII;3C-8H, untagged in CPFpol+Cft2;;SII (Pap1-SII) when alone, untagged in CPFpol and CPFcore;SII (Cft2-SII) when alone, untagged in CPFpol+Cft2 and CPFcore;;3C-SII (C-terminal) in Ysh1-Mpe1 complexes, copies: 1;2;1;1;1;1;1;1, label: 5'-FAM. For orientation: A gel shift assay detects complexes by their altered migration in electrophoresis.

The target of the next data set is T1, Rna14;Rna15 (Saccharomyces cerevisiae;Saccharomyces …, UniProt P25298;P25299 1-677;1-296, |).
T1 sequence 1: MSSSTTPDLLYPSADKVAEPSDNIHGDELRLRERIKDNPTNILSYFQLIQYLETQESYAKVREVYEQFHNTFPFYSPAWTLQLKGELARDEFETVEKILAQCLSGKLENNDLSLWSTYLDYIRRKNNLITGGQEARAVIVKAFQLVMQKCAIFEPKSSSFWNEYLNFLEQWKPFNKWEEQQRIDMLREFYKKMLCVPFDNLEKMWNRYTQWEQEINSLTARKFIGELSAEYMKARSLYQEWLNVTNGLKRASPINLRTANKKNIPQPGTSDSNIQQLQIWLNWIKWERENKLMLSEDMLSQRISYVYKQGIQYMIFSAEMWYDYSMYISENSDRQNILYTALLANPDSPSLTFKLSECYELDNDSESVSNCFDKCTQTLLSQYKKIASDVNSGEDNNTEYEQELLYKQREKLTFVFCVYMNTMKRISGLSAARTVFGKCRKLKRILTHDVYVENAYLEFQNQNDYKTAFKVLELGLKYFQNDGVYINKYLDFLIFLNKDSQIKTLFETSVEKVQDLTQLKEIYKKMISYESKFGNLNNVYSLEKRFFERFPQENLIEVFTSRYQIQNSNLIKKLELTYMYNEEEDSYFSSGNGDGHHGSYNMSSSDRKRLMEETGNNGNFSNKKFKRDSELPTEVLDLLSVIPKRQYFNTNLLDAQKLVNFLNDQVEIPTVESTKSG
T1 sequence 2: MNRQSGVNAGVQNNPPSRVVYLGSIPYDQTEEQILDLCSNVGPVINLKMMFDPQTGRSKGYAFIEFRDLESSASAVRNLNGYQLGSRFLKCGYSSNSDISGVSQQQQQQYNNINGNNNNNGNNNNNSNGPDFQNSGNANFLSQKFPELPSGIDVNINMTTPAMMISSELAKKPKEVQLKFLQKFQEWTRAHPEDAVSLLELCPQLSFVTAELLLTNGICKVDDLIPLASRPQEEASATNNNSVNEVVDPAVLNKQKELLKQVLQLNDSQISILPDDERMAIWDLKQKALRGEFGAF
The experiment in a line: EMSA; EMSA: 50 nM RNA, 0.25-4.0 uM protein, protein diluted in 10 mM HEPES pH 7.9, 150 mM NaCl, 0.5 mM Mg(OAc)2, plus 1x loading dye (orange G, glycerol, EDTA); 30 min on ice; native 6% acrylamide/TBE PAGE. The settings on record: protein: recombinant;recombinant; tags: 6H;; chain copies: 2;2; label: 5'-FAM.

In a further data set the target is Ysh1;Mpe1;Yjr141w (Saccharomyces cerevisiae;Saccharomyces …, UniProt Q06224;P35728;P47172 1-779;1-441;1-347, ||). Described as above. The settings on record: protein: recombinant;recombinant;recombinant; tags: ;3C-SII (C-terminal) in Ysh1-Mpe1 complexes; untagged in CPFcore;SII-3C (N-terminal) in Ysh1-Yjr141w; untagged in Ysh1-Mpe1-Yjr141w; copies: 1;1;1; label: 5'-FAM.
Ysh1;Mpe1;Yjr141w, sequence (Q06224 whole entry, chain 1 of 3): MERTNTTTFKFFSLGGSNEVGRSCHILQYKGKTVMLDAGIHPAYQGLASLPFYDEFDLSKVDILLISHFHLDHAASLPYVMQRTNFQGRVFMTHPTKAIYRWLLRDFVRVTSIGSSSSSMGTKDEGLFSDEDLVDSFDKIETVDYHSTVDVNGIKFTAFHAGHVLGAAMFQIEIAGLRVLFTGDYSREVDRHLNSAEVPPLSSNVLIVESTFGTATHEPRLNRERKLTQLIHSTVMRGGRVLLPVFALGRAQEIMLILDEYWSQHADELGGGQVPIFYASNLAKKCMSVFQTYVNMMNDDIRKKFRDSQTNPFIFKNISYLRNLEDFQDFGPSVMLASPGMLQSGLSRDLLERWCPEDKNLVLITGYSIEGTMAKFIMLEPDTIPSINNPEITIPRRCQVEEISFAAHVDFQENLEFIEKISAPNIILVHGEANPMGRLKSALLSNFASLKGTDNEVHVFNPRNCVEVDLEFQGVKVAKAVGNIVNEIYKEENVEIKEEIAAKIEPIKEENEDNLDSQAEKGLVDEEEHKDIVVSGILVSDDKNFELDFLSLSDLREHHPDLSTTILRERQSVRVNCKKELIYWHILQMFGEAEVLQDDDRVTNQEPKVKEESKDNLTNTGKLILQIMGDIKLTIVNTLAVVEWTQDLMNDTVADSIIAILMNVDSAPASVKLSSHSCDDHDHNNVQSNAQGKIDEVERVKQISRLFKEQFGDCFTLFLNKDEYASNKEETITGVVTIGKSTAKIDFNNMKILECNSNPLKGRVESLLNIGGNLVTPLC
Ysh1;Mpe1;Yjr141w, sequence (P35728 whole entry, chain 2 of 3): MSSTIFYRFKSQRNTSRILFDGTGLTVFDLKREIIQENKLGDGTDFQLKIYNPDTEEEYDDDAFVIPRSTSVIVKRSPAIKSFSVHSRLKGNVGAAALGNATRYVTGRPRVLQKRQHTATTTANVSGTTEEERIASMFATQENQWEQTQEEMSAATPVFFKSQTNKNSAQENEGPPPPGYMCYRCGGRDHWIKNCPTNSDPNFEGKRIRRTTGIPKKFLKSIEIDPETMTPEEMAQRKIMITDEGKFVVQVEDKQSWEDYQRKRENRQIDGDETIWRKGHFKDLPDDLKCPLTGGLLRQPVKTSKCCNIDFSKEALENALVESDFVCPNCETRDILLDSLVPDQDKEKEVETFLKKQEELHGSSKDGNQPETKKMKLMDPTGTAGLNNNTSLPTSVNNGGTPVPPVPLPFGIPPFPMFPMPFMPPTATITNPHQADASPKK
Ysh1;Mpe1;Yjr141w, sequence (P47172 whole entry, chain 3 of 3): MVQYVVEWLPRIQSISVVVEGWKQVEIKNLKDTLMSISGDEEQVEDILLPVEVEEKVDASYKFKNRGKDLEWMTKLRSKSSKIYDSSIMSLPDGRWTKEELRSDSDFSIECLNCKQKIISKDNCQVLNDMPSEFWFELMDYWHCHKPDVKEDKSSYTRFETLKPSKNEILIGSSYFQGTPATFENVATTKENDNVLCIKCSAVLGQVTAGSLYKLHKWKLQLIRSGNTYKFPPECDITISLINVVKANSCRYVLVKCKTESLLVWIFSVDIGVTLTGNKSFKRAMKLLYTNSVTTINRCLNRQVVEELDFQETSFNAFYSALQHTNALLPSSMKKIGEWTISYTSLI

A further data set deals with Cft1;Pfs2;Yth1;Fip1;Pap1 (Saccharomyces cerevisiae;Saccharomyces …, UniProt Q06632;P42841;Q06102;P45976;P29468 1-1357;1-465;1-208;1-327;1-568, ||||). Description: EMSA; CPFpol; EMSA: 50 nM RNA, 0.25-4.0 uM protein, protein diluted in 10 mM HEPES pH 7.9, 150 mM NaCl, 0.5 mM Mg(OAc)2, plus 1x loading dye (orange G, glycerol, EDTA); 30 min on ice; native 6% acrylamide/TBE PAGE. The settings on record: protein: recombinant;recombinant;recombinant;recombinant;recombinant; tags: ;3C-SII;3C-8H; untagged in CPFpol+Cft2;;SII (Pap1-SII) when alone; untagged in CPFpol and CPFcore; copies: 1;2;1;1;1; label: 5'-FAM.

The next data set has as its target Cft1;Pfs2;Yth1;Fip1 (Saccharomyces cerevisiae;Saccharomyces …, UniProt Q06632;P42841;Q06102;P45976 1-1357;1-465;1-208;1-327, |||). Description: EMSA; CPFpol (no Pap1); EMSA: 50 nM RNA, 0.25-4.0 uM protein, protein diluted in 10 mM HEPES pH 7.9, 150 mM NaCl, 0.5 mM Mg(OAc)2, plus 1x loading dye (orange G, glycerol, EDTA); 30 min on ice; native 6% acrylamide/TBE PAGE. Conditions: protein: recombinant;recombinant;recombinant;recombinant; tags: ;3C-SII;3C-8H; untagged in CPFpol+Cft2;; copies: 1;2;1;1; label: 5'-FAM.

Cft1;Pfs2;Yth1;Fip1, sequence (Q06632 whole entry, chain 1 of 4): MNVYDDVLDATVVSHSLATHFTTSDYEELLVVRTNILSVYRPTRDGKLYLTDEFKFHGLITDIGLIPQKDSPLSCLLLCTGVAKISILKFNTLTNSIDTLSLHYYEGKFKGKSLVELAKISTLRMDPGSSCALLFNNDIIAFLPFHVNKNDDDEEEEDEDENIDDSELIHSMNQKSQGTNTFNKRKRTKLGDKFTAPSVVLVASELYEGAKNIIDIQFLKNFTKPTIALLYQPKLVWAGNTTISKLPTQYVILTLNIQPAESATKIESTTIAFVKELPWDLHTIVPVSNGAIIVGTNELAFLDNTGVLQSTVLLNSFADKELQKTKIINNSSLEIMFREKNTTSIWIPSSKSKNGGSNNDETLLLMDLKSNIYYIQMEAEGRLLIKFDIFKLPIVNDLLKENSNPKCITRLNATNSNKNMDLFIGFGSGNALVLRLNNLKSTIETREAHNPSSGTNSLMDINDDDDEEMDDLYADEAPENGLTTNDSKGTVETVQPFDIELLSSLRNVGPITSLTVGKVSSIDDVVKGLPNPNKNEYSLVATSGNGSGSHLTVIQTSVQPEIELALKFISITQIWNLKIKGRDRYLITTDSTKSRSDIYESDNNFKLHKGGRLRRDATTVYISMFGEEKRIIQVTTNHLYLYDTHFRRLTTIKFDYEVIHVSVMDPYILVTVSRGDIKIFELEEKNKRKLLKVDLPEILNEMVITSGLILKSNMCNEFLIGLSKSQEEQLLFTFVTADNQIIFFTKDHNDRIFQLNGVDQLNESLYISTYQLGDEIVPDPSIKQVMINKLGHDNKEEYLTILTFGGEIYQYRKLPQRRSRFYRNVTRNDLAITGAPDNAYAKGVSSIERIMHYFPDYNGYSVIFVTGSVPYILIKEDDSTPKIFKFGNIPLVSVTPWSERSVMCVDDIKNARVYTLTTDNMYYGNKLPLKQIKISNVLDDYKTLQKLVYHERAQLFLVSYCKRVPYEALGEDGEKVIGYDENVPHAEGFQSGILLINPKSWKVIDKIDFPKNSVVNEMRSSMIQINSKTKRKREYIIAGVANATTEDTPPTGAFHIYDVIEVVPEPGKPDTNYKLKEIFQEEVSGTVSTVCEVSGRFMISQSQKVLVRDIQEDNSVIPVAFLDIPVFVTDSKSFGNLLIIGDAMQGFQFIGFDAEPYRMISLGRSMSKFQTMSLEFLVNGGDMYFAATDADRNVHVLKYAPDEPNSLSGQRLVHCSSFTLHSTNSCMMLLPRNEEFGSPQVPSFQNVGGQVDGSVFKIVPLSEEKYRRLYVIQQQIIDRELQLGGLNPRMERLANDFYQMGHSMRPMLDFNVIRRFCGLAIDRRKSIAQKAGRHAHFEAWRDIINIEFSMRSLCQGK
Cft1;Pfs2;Yth1;Fip1, sequence (P42841 whole entry, chain 2 of 4): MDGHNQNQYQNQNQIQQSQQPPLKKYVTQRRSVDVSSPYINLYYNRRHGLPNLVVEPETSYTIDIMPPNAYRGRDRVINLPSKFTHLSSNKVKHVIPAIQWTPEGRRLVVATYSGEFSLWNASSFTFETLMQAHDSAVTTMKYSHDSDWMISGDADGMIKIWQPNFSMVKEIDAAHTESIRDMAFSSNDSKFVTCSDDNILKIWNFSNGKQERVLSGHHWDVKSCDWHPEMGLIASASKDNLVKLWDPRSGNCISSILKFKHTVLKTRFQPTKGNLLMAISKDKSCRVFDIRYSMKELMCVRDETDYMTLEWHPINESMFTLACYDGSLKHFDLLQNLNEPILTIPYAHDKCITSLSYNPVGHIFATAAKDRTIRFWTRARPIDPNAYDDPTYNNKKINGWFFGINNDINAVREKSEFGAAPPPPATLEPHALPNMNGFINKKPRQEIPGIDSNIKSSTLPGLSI
Cft1;Pfs2;Yth1;Fip1, sequence (Q06102 whole entry, chain 3 of 4): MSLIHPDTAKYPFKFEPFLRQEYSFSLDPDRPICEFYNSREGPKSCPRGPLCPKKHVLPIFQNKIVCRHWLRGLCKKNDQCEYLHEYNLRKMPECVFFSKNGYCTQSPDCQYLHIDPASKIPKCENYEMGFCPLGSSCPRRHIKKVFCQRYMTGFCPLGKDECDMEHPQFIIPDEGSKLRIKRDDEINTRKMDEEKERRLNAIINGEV
Cft1;Pfs2;Yth1;Fip1, sequence (P45976 whole entry, chain 4 of 4): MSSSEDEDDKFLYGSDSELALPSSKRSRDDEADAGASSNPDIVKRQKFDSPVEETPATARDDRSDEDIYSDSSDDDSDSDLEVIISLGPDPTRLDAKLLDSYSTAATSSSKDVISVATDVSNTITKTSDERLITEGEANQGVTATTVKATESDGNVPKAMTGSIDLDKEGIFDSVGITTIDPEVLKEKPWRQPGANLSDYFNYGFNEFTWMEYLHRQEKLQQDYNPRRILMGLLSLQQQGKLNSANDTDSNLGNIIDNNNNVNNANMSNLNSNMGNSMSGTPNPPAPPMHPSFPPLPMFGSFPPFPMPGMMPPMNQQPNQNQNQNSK

With CGUUAUUUAUAUUUCAAAUUUUUCU (ssRNA) [CYC1f EMSA probe], the binding result (in data set [1]; with Rna14;Rna15) was “binds” in each case.
As for UUUUUUUUUUUUUUU (ssRNA) [U15], the binding result in data set [1] was “no binding”; with Rna14;Rna15, “binds”; with Ysh1;Mpe1;Yjr141w it was “no binding”; with Cft1;Pfs2;Yth1;Fip1;Pap1 it was “no binding”; with Cft1;Pfs2;Yth1;Fip1 it was “no binding”.
For AAGAACGUUAUUUAUAUUUCAAAUUUUUCUUUUUU (ssRNA) [CYC1d EMSA probe], the binding result (in data set [1]; with Rna14;Rna15; with Cft1;Pfs2;Yth1;Fip1;Pap1; in the data set with Cft1;Pfs2;Yth1;Fip1) was “binds” each time.
On to CCCCCCCCCCCCCCC (ssRNA) [C15], for which the binding result (in data set [1]; with Rna14;Rna15; with Ysh1;Mpe1;Yjr141w; with Cft1;Pfs2;Yth1;Fip1;Pap1; in the data set with Cft1;Pfs2;Yth1;Fip1) was “no binding” throughout.
Turning to AAAAAAAAAAAAAAA (ssRNA) [A15], the binding result in data set [1] is recorded as “binds”; with Rna14;Rna15 it was “no binding”; with Ysh1;Mpe1;Yjr141w, “no binding”; with Cft1;Pfs2;Yth1;Fip1;Pap1, “binds”; with Cft1;Pfs2;Yth1;Fip1, “binds”.
As to GGGGGGGGGGGGGGG (ssRNA) [G15], the binding result (in data set [1]; in the data set with Rna14;Rna15; with Ysh1;Mpe1;Yjr141w; with Cft1;Pfs2;Yth1;Fip1;Pap1; with Cft1;Pfs2;Yth1;Fip1) was “binds” throughout.
